From paper PMC12416549 (2024)

T1: TNFR1 (Homo sapiens, UniProt P19438)
T1 chain: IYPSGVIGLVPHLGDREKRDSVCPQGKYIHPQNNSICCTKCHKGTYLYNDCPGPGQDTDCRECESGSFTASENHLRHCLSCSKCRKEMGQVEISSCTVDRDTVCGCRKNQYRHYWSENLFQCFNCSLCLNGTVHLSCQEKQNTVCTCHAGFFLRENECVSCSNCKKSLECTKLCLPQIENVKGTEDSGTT


Target: T1, TNFR1
Test: yeast display SC50

Binder | apparent Kd (screen)
L41S (designed binder) MTLQELLREEALRRAEAEAFRYALELLAEKFPEQKEYLLDSAEEIESQIRSLSGVDVEDVRKFLDKEWAWVKELLAEHPAELAEVEAARAARLAELRAEVEAKVAA | 1.16 nM
E18N (designed binder) MTLQELLREEALRRAEANAFRYALELLAEKFPEQKEYLLDLAEEIESQIRSLSGVDVEDVRKFLDKEWAWVKELLAEHPAELAEVEAARAARLAELRAEVEAKVAA | 0.49 nM
L39N (designed binder) MTLQELLREEALRRAEAEAFRYALELLAEKFPEQKEYLNDLAEEIESQIRSLSGVDVEDVRKFLDKEWAWVKELLAEHPAELAEVEAARAARLAELRAEVEAKVAA | 2.48 nM
F20I (designed binder) MTLQELLREEALRRAEAEAIRYALELLAEKFPEQKEYLLDLAEEIESQIRSLSGVDVEDVRKFLDKEWAWVKELLAEHPAELAEVEAARAARLAELRAEVEAKVAA | 1.05 nM
F20Q (designed binder) MTLQELLREEALRRAEAEAQRYALELLAEKFPEQKEYLLDLAEEIESQIRSLSGVDVEDVRKFLDKEWAWVKELLAEHPAELAEVEAARAARLAELRAEVEAKVAA | 2.25 nM
E18K (designed binder) MTLQELLREEALRRAEAKAFRYALELLAEKFPEQKEYLLDLAEEIESQIRSLSGVDVEDVRKFLDKEWAWVKELLAEHPAELAEVEAARAARLAELRAEVEAKVAA | 0.49 nM
Q34K (designed binder) MTLQELLREEALRRAEAEAFRYALELLAEKFPEKKEYLLDLAEEIESQIRSLSGVDVEDVRKFLDKEWAWVKELLAEHPAELAEVEAARAARLAELRAEVEAKVAA | 0.653 nM
A11R (designed binder) MTLQELLREERLRRAEAEAFRYALELLAEKFPEQKEYLLDLAEEIESQIRSLSGVDVEDVRKFLDKEWAWVKELLAEHPAELAEVEAARAARLAELRAEVEAKVAA | 0.49 nM
Q34H (designed binder) MTLQELLREEALRRAEAEAFRYALELLAEKFPEHKEYLLDLAEEIESQIRSLSGVDVEDVRKFLDKEWAWVKELLAEHPAELAEVEAARAARLAELRAEVEAKVAA | 0.869 nM
L41W (designed binder) MTLQELLREEALRRAEAEAFRYALELLAEKFPEQKEYLLDWAEEIESQIRSLSGVDVEDVRKFLDKEWAWVKELLAEHPAELAEVEAARAARLAELRAEVEAKVAA | 2.25 nM
F20R (designed binder) MTLQELLREEALRRAEAEARRYALELLAEKFPEQKEYLLDLAEEIESQIRSLSGVDVEDVRKFLDKEWAWVKELLAEHPAELAEVEAARAARLAELRAEVEAKVAA | 10.4 nM
E16S (designed binder) MTLQELLREEALRRASAEAFRYALELLAEKFPEQKEYLLDLAEEIESQIRSLSGVDVEDVRKFLDKEWAWVKELLAEHPAELAEVEAARAARLAELRAEVEAKVAA | 0.653 nM
K30E (designed binder) MTLQELLREEALRRAEAEAFRYALELLAEEFPEQKEYLLDLAEEIESQIRSLSGVDVEDVRKFLDKEWAWVKELLAEHPAELAEVEAARAARLAELRAEVEAKVAA | 0.49 nM
L24V (designed binder) MTLQELLREEALRRAEAEAFRYAVELLAEKFPEQKEYLLDLAEEIESQIRSLSGVDVEDVRKFLDKEWAWVKELLAEHPAELAEVEAARAARLAELRAEVEAKVAA | 0.653 nM
A17Y (designed binder) MTLQELLREEALRRAEYEAFRYALELLAEKFPEQKEYLLDLAEEIESQIRSLSGVDVEDVRKFLDKEWAWVKELLAEHPAELAEVEAARAARLAELRAEVEAKVAA | 0.593 nM
A19L (designed binder) MTLQELLREEALRRAEAELFRYALELLAEKFPEQKEYLLDLAEEIESQIRSLSGVDVEDVRKFLDKEWAWVKELLAEHPAELAEVEAARAARLAELRAEVEAKVAA | 2.05 nM
A15G (designed binder) MTLQELLREEALRRGEAEAFRYALELLAEKFPEQKEYLLDLAEEIESQIRSLSGVDVEDVRKFLDKEWAWVKELLAEHPAELAEVEAARAARLAELRAEVEAKVAA | 0.539 nM
L38F (designed binder) MTLQELLREEALRRAEAEAFRYALELLAEKFPEQKEYFLDLAEEIESQIRSLSGVDVEDVRKFLDKEWAWVKELLAEHPAELAEVEAARAARLAELRAEVEAKVAA | 0.653 nM

Further lines, results first:

apparent Kd (screen) | Binder
0.405 nM | A76T (designed binder) MTLQELLREEALRRAEAEAFRYALELLAEKFPEQKEYLLDLAEEIESQIRSLSGVDVEDVRKFLDKEWAWVKELLTEHPAELAEVEAARAARLAELRAEVEAKVAA
0.593 nM | L52T (designed binder) MTLQELLREEALRRAEAEAFRYALELLAEKFPEQKEYLLDLAEEIESQIRSTSGVDVEDVRKFLDKEWAWVKELLAEHPAELAEVEAARAARLAELRAEVEAKVAA
0.79 nM | A90T (designed binder) MTLQELLREEALRRAEAEAFRYALELLAEKFPEQKEYLLDLAEEIESQIRSLSGVDVEDVRKFLDKEWAWVKELLAEHPAELAEVEAARTARLAELRAEVEAKVAA
0.49 nM | K66Y (designed binder) MTLQELLREEALRRAEAEAFRYALELLAEKFPEQKEYLLDLAEEIESQIRSLSGVDVEDVRKFLDYEWAWVKELLAEHPAELAEVEAARAARLAELRAEVEAKVAA
0.49 nM | A91P (designed binder) MTLQELLREEALRRAEAEAFRYALELLAEKFPEQKEYLLDLAEEIESQIRSLSGVDVEDVRKFLDKEWAWVKELLAEHPAELAEVEAARAPRLAELRAEVEAKVAA
0.49 nM | E101I (designed binder) MTLQELLREEALRRAEAEAFRYALELLAEKFPEQKEYLLDLAEEIESQIRSLSGVDVEDVRKFLDKEWAWVKELLAEHPAELAEVEAARAARLAELRAEVIAKVAA
22.2 nM | Q48D (designed binder) MTLQELLREEALRRAEAEAFRYALELLAEKFPEQKEYLLDLAEEIESDIRSLSGVDVEDVRKFLDKEWAWVKELLAEHPAELAEVEAARAARLAELRAEVEAKVAA
0.593 nM | V100D (designed binder) MTLQELLREEALRRAEAEAFRYALELLAEKFPEQKEYLLDLAEEIESQIRSLSGVDVEDVRKFLDKEWAWVKELLAEHPAELAEVEAARAARLAELRAEDEAKVAA
0.539 nM | A91L (designed binder) MTLQELLREEALRRAEAEAFRYALELLAEKFPEQKEYLLDLAEEIESQIRSLSGVDVEDVRKFLDKEWAWVKELLAEHPAELAEVEAARALRLAELRAEVEAKVAA
3 nM | V60K (designed binder) MTLQELLREEALRRAEAEAFRYALELLAEKFPEQKEYLLDLAEEIESQIRSLSGVDVEDKRKFLDKEWAWVKELLAEHPAELAEVEAARAARLAELRAEVEAKVAA
1.05 nM | A88Y (designed binder) MTLQELLREEALRRAEAEAFRYALELLAEKFPEQKEYLLDLAEEIESQIRSLSGVDVEDVRKFLDKEWAWVKELLAEHPAELAEVEAYRAARLAELRAEVEAKVAA
0.539 nM | K103P (designed binder) MTLQELLREEALRRAEAEAFRYALELLAEKFPEQKEYLLDLAEEIESQIRSLSGVDVEDVRKFLDKEWAWVKELLAEHPAELAEVEAARAARLAELRAEVEAPVAA
0.79 nM | L93N (designed binder) MTLQELLREEALRRAEAEAFRYALELLAEKFPEQKEYLLDLAEEIESQIRSLSGVDVEDVRKFLDKEWAWVKELLAEHPAELAEVEAARAARNAELRAEVEAKVAA
0.869 nM | A105G (designed binder) MTLQELLREEALRRAEAEAFRYALELLAEKFPEQKEYLLDLAEEIESQIRSLSGVDVEDVRKFLDKEWAWVKELLAEHPAELAEVEAARAARLAELRAEVEAKVGA
0.49 nM | S47R (designed binder) MTLQELLREEALRRAEAEAFRYALELLAEKFPEQKEYLLDLAEEIERQIRSLSGVDVEDVRKFLDKEWAWVKELLAEHPAELAEVEAARAARLAELRAEVEAKVAA
7.78 nM | E44D (designed binder) MTLQELLREEALRRAEAEAFRYALELLAEKFPEQKEYLLDLAEDIESQIRSLSGVDVEDVRKFLDKEWAWVKELLAEHPAELAEVEAARAARLAELRAEVEAKVAA
0.49 nM | R97F (designed binder) MTLQELLREEALRRAEAEAFRYALELLAEKFPEQKEYLLDLAEEIESQIRSLSGVDVEDVRKFLDKEWAWVKELLAEHPAELAEVEAARAARLAELFAEVEAKVAA
